Laboratory results from US20170002075A1 (AbbVie / Abbott, published 2017).
Each block holds one binder with its values, some of them ahead of it.

Columns and labels:
[1] = target: T1, biotinylated Aβ1-42 globulomer (UniProt P05067 672-713, 1/5 of the Aβ1-42 peptide used was Biotinyl-Amyloid β-Protein (1-42)); test: ALPHA screen: RAGE-Fc titrated on protein A acceptor beads, biotinylated Aβ globulomer on streptavidin donor beads
T1 construct: domain: Amyloid β-Protein (1-42); Oligomer of Aβ1-42; Concentrations are calculated as Aβ1-42 monomer; also called Aβ-globulomer; amyloid Aβ-globulomers

[2] = target: T2, recombinant human RAGE (plate coat of the competition ELISA of Example 1.4); test: competition ELISA on plates coated with recombinant human RAGE (2 µg/mL); competitor: biotinylated hybridoma-derived 4E5 (4E5-biotin), streptavidin-HRP, OD 450 nm; the unit comes from the axis 'Log MAbs (M)'
T2 construct: not shown: The carrier of the coated preparation, if it had one
Method: The purified chimeric anti-human RAGE monoclonal antibodies were tested for their ability to bind human RAGE in a competition ELISA. […] Equal volumes (50 μL) of each recombinant chimeric anti-human RAGE monoclonal antibodies or hybridoma-derived anti-human RAGE monoclonal antibodies and each corresponding biotinylated hybridoma-derived anti-RAGE mAbs were mixed. 50 μL of this mixture was then added to ELISA plates pre-coated with recombinant human RAGE at 2 μg/mL and incubated for 1.5 hours at room temperature. Wells were washed three times with PBS+0.05% Tween-20. Streptavidin HRP (1 mg/mL) was diluted 1:16000 in PBST+10% Superblock; 50 µL/well was added and the plates incubated for 1 hour at room temperature. Plates were washed 3 times with PBS+0.05% Tween-20. 50 µL of TMB solution (Sigma, St Louis, Mo.) was added to each well and incubated for 10 minutes at room temperature. The reaction was stopped by addition of IN sulphuric acid. Plates were read spectrophotometrically at a wavelength of 450 nm.

binding result [1]: no binding (tested: about 30 ng/µl)
B1: C-terminal shortened husRAGE fusion protein (1-130-sRAGE-Fc) (Fc fusion)
chain: AQNITARIGEPLVLKCKGAPKKPPQRLEWKLNTGRTEAWKVLSPQGGGPWDSVARVLPNGSLFLPAVGIQDEGIFRCQAMNRNGKETKSNYRVRVYQIPGKPEIVDSA
notes: also called husRAGE-1-130-Fc; RAGE-Fc mutant protein consisting of the v-domain only; not shown: C-terminal part of a human IgG heavy chain ('hIgG lambda hc 257-Stop')

EC50 [2]: 66.2 nM
B2: 4E5-recombinant (antibody, V domains shown)
VH: QVQLQQSGAELVRPGTSVKVSCKASGYAFNNYLIEWIKQRPGQGLEWIGVINPGSGGTNHNEKFKVKATLTADKSSSTAYIQLSSLTSDDSAVYFCARSAGTARARFAYWGQGTLVTVSA
VL: DIQMTQSPSSLSASLGERVSLTCRASQDIGSSLNWLQQEPDGTIKRLIYATSSLDSGVPKRFSGSRSGSDYSLTISSLESEDFVDYYCLQYASFPFTFGSGTKLEIKR
notes: also called recombinant chimeric anti-human RAGE monoclonal antibody 4E5 (human IgG1/kappa)
